Results: article PMC7588459 (Scientific Reports, 2020)

B1: m102.4 VH K31A (antibody, V domains shown)
VH: EVQVIQSGADVKKPGSSVKVSCKSSGGTFSAYAINWVRQAPGQGLEWMGGIIPILGIANYAQKFQGRVTITTDESTSTAYMELSSLRSEDTAVYYCARGWGREQLAPHPSQYYYYYYGMDVWGQGTTVTVSS
VL: EIVMTQSPGTLSLAPGERATLSCWASQSVRNNYLAWYQQKPGQAPRLVIYNGSTRATGIPDRFSGSGSGTDFTLTISRLDPEDFAVYYCQQYGNSRRVTFGGGTKVEIK
B2: m102.4 VH E103A (antibody, V domains shown)
VH: EVQVIQSGADVKKPGSSVKVSCKSSGGTFSKYAINWVRQAPGQGLEWMGGIIPILGIANYAQKFQGRVTITTDESTSTAYMELSSLRSEDTAVYYCARGWGRAQLAPHPSQYYYYYYGMDVWGQGTTVTVSS
VL: EIVMTQSPGTLSLAPGERATLSCWASQSVRNNYLAWYQQKPGQAPRLVIYNGSTRATGIPDRFSGSGSGTDFTLTISRLDPEDFAVYYCQQYGNSRRVTFGGGTKVEIK
B3: m102.4 VH P107A (antibody, V domains shown)
VH: EVQVIQSGADVKKPGSSVKVSCKSSGGTFSKYAINWVRQAPGQGLEWMGGIIPILGIANYAQKFQGRVTITTDESTSTAYMELSSLRSEDTAVYYCARGWGREQLAAHPSQYYYYYYGMDVWGQGTTVTVSS
VL: EIVMTQSPGTLSLAPGERATLSCWASQSVRNNYLAWYQQKPGQAPRLVIYNGSTRATGIPDRFSGSGSGTDFTLTISRLDPEDFAVYYCQQYGNSRRVTFGGGTKVEIK
B4: m102.4 VH Q104A (antibody, V domains shown)
VH: EVQVIQSGADVKKPGSSVKVSCKSSGGTFSKYAINWVRQAPGQGLEWMGGIIPILGIANYAQKFQGRVTITTDESTSTAYMELSSLRSEDTAVYYCARGWGREALAPHPSQYYYYYYGMDVWGQGTTVTVSS
VL: EIVMTQSPGTLSLAPGERATLSCWASQSVRNNYLAWYQQKPGQAPRLVIYNGSTRATGIPDRFSGSGSGTDFTLTISRLDPEDFAVYYCQQYGNSRRVTFGGGTKVEIK
B5: m102.4 VH P109A (antibody, V domains shown)
VH: EVQVIQSGADVKKPGSSVKVSCKSSGGTFSKYAINWVRQAPGQGLEWMGGIIPILGIANYAQKFQGRVTITTDESTSTAYMELSSLRSEDTAVYYCARGWGREQLAPHASQYYYYYYGMDVWGQGTTVTVSS
VL: EIVMTQSPGTLSLAPGERATLSCWASQSVRNNYLAWYQQKPGQAPRLVIYNGSTRATGIPDRFSGSGSGTDFTLTISRLDPEDFAVYYCQQYGNSRRVTFGGGTKVEIK
B6: m102.4 VH I54A (antibody, V domains shown)
VH: EVQVIQSGADVKKPGSSVKVSCKSSGGTFSKYAINWVRQAPGQGLEWMGGIIPALGIANYAQKFQGRVTITTDESTSTAYMELSSLRSEDTAVYYCARGWGREQLAPHPSQYYYYYYGMDVWGQGTTVTVSS
VL: EIVMTQSPGTLSLAPGERATLSCWASQSVRNNYLAWYQQKPGQAPRLVIYNGSTRATGIPDRFSGSGSGTDFTLTISRLDPEDFAVYYCQQYGNSRRVTFGGGTKVEIK
B7: m102.4 VH I57A (antibody, V domains shown)
VH: EVQVIQSGADVKKPGSSVKVSCKSSGGTFSKYAINWVRQAPGQGLEWMGGIIPILGAANYAQKFQGRVTITTDESTSTAYMELSSLRSEDTAVYYCARGWGREQLAPHPSQYYYYYYGMDVWGQGTTVTVSS
VL: EIVMTQSPGTLSLAPGERATLSCWASQSVRNNYLAWYQQKPGQAPRLVIYNGSTRATGIPDRFSGSGSGTDFTLTISRLDPEDFAVYYCQQYGNSRRVTFGGGTKVEIK
B8: m102.4 VH L105A (antibody, V domains shown)
VH: EVQVIQSGADVKKPGSSVKVSCKSSGGTFSKYAINWVRQAPGQGLEWMGGIIPILGIANYAQKFQGRVTITTDESTSTAYMELSSLRSEDTAVYYCARGWGREQAAPHPSQYYYYYYGMDVWGQGTTVTVSS
VL: EIVMTQSPGTLSLAPGERATLSCWASQSVRNNYLAWYQQKPGQAPRLVIYNGSTRATGIPDRFSGSGSGTDFTLTISRLDPEDFAVYYCQQYGNSRRVTFGGGTKVEIK
B9: m102.4 VH Y114A (antibody, V domains shown)
VH: EVQVIQSGADVKKPGSSVKVSCKSSGGTFSKYAINWVRQAPGQGLEWMGGIIPILGIANYAQKFQGRVTITTDESTSTAYMELSSLRSEDTAVYYCARGWGREQLAPHPSQYYAYYYGMDVWGQGTTVTVSS
VL: EIVMTQSPGTLSLAPGERATLSCWASQSVRNNYLAWYQQKPGQAPRLVIYNGSTRATGIPDRFSGSGSGTDFTLTISRLDPEDFAVYYCQQYGNSRRVTFGGGTKVEIK
B10: m102.4 VH R102A (antibody, V domains shown)
VH: EVQVIQSGADVKKPGSSVKVSCKSSGGTFSKYAINWVRQAPGQGLEWMGGIIPILGIANYAQKFQGRVTITTDESTSTAYMELSSLRSEDTAVYYCARGWGAEQLAPHPSQYYYYYYGMDVWGQGTTVTVSS
VL: EIVMTQSPGTLSLAPGERATLSCWASQSVRNNYLAWYQQKPGQAPRLVIYNGSTRATGIPDRFSGSGSGTDFTLTISRLDPEDFAVYYCQQYGNSRRVTFGGGTKVEIK
B11: m102.4 VH A106W (antibody, V domains shown)
VH: EVQVIQSGADVKKPGSSVKVSCKSSGGTFSKYAINWVRQAPGQGLEWMGGIIPILGIANYAQKFQGRVTITTDESTSTAYMELSSLRSEDTAVYYCARGWGREQLWPHPSQYYYYYYGMDVWGQGTTVTVSS
VL: EIVMTQSPGTLSLAPGERATLSCWASQSVRNNYLAWYQQKPGQAPRLVIYNGSTRATGIPDRFSGSGSGTDFTLTISRLDPEDFAVYYCQQYGNSRRVTFGGGTKVEIK
B12: m102.4 VH Q111A (antibody, V domains shown)
VH: EVQVIQSGADVKKPGSSVKVSCKSSGGTFSKYAINWVRQAPGQGLEWMGGIIPILGIANYAQKFQGRVTITTDESTSTAYMELSSLRSEDTAVYYCARGWGREQLAPHPSAYYYYYYGMDVWGQGTTVTVSS
VL: EIVMTQSPGTLSLAPGERATLSCWASQSVRNNYLAWYQQKPGQAPRLVIYNGSTRATGIPDRFSGSGSGTDFTLTISRLDPEDFAVYYCQQYGNSRRVTFGGGTKVEIK
B13: m102.4 VH Y112A (antibody, V domains shown)
VH: EVQVIQSGADVKKPGSSVKVSCKSSGGTFSKYAINWVRQAPGQGLEWMGGIIPILGIANYAQKFQGRVTITTDESTSTAYMELSSLRSEDTAVYYCARGWGREQLAPHPSQAYYYYYGMDVWGQGTTVTVSS
VL: EIVMTQSPGTLSLAPGERATLSCWASQSVRNNYLAWYQQKPGQAPRLVIYNGSTRATGIPDRFSGSGSGTDFTLTISRLDPEDFAVYYCQQYGNSRRVTFGGGTKVEIK
B14: m102.4 VH S110A (antibody, V domains shown)
VH: EVQVIQSGADVKKPGSSVKVSCKSSGGTFSKYAINWVRQAPGQGLEWMGGIIPILGIANYAQKFQGRVTITTDESTSTAYMELSSLRSEDTAVYYCARGWGREQLAPHPAQYYYYYYGMDVWGQGTTVTVSS
VL: EIVMTQSPGTLSLAPGERATLSCWASQSVRNNYLAWYQQKPGQAPRLVIYNGSTRATGIPDRFSGSGSGTDFTLTISRLDPEDFAVYYCQQYGNSRRVTFGGGTKVEIK
B15: m102.4 VH G56A (antibody, V domains shown)
VH: EVQVIQSGADVKKPGSSVKVSCKSSGGTFSKYAINWVRQAPGQGLEWMGGIIPILAIANYAQKFQGRVTITTDESTSTAYMELSSLRSEDTAVYYCARGWGREQLAPHPSQYYYYYYGMDVWGQGTTVTVSS
VL: EIVMTQSPGTLSLAPGERATLSCWASQSVRNNYLAWYQQKPGQAPRLVIYNGSTRATGIPDRFSGSGSGTDFTLTISRLDPEDFAVYYCQQYGNSRRVTFGGGTKVEIK
B16: m102.4 VL R30A (antibody, V domains shown)
VH: EVQVIQSGADVKKPGSSVKVSCKSSGGTFSKYAINWVRQAPGQGLEWMGGIIPILGIANYAQKFQGRVTITTDESTSTAYMELSSLRSEDTAVYYCARGWGREQLAPHPSQYYYYYYGMDVWGQGTTVTVSS
VL: EIVMTQSPGTLSLAPGERATLSCWASQSVANNYLAWYQQKPGQAPRLVIYNGSTRATGIPDRFSGSGSGTDFTLTISRLDPEDFAVYYCQQYGNSRRVTFGGGTKVEIK
notes: also called LC:R30 to alanine
B17: m102.4 VH L55A (antibody, V domains shown)
VH: EVQVIQSGADVKKPGSSVKVSCKSSGGTFSKYAINWVRQAPGQGLEWMGGIIPIAGIANYAQKFQGRVTITTDESTSTAYMELSSLRSEDTAVYYCARGWGREQLAPHPSQYYYYYYGMDVWGQGTTVTVSS
VL: EIVMTQSPGTLSLAPGERATLSCWASQSVRNNYLAWYQQKPGQAPRLVIYNGSTRATGIPDRFSGSGSGTDFTLTISRLDPEDFAVYYCQQYGNSRRVTFGGGTKVEIK
B18: m102.4 VH Y113A (antibody, V domains shown)
VH: EVQVIQSGADVKKPGSSVKVSCKSSGGTFSKYAINWVRQAPGQGLEWMGGIIPILGIANYAQKFQGRVTITTDESTSTAYMELSSLRSEDTAVYYCARGWGREQLAPHPSQYAYYYYGMDVWGQGTTVTVSS
VL: EIVMTQSPGTLSLAPGERATLSCWASQSVRNNYLAWYQQKPGQAPRLVIYNGSTRATGIPDRFSGSGSGTDFTLTISRLDPEDFAVYYCQQYGNSRRVTFGGGTKVEIK
B19: m102.4 VH H108A (antibody, V domains shown)
VH: EVQVIQSGADVKKPGSSVKVSCKSSGGTFSKYAINWVRQAPGQGLEWMGGIIPILGIANYAQKFQGRVTITTDESTSTAYMELSSLRSEDTAVYYCARGWGREQLAPAPSQYYYYYYGMDVWGQGTTVTVSS
VL: EIVMTQSPGTLSLAPGERATLSCWASQSVRNNYLAWYQQKPGQAPRLVIYNGSTRATGIPDRFSGSGSGTDFTLTISRLDPEDFAVYYCQQYGNSRRVTFGGGTKVEIK

These binders were tested against T1, Nipah virus attachment (receptor-binding) glycoprotein (GP), wild type (Nipah virus; strain of the assayed …, UniProt Q9IH62) (assay: ELISA). Settings: both partners purified.
T1 construct: source: HEK 293-F FreeStyle, transiently transfected, purified from supernatant (Ni-NTA)
Work on B1 yielded a Kd of 0.08 nM.
B2 gave a Kd of 1.83 nM.
Work on B3 yielded a Kd of 0.09 nM.
B4 was tested, and the Kd was 0.1 nM.
With B5 the Kd was 0.1 nM.
B6 was tested, and the Kd was 0.13 nM.
Binder B7 has a Kd of 0.1 nM.
With B8 the Kd was 0.1 nM.
Work on B9 yielded a Kd of 0.07 nM.
Binder B10 has a Kd of 0.09 nM.
B11 gave a Kd of 4.95 nM.
B12 gave a Kd of 0.08 nM.
With B13 the Kd was 0.11 nM.
B14 showed a Kd of 0.13 nM.
For B15, the Kd was 0.09 nM.
With B16 the Kd was 0.13 nM.
B17 showed a Kd of 0.1 nM.
B18 showed a Kd of 0.12 nM.
Work on B19 yielded a Kd of 0.09 nM.
